Results on three substances are retold here after publication PMC2673426.

pKd: −log10 of the molar value.

In data set [1] the target is T1, hSBP2 (Homo sapiens) (UniProt Q96T21).
T1 sequence: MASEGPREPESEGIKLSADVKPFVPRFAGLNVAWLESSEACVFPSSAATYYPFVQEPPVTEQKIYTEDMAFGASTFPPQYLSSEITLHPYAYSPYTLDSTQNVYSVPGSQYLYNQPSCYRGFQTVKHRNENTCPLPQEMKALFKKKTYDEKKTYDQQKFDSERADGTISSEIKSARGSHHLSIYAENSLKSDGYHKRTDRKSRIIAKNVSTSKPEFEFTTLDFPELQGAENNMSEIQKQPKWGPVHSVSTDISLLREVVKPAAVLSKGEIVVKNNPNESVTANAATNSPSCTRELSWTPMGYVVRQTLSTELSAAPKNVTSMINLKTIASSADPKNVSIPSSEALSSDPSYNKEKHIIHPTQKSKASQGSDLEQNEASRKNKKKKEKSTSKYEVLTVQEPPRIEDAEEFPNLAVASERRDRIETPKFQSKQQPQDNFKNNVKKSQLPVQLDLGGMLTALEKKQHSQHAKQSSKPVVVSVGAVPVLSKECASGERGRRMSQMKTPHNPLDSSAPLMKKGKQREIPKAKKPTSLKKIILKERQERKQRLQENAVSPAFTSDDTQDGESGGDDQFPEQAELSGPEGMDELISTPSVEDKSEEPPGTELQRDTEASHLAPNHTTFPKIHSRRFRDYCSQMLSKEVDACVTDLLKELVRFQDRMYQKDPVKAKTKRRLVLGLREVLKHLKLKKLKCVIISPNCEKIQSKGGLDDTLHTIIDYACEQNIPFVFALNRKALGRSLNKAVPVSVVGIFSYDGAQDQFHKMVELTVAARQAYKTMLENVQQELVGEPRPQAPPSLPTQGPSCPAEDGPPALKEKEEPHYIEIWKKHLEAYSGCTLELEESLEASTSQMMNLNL
Kind of data set: EMSA. (Mobility shift assays separate free from complexed probe on a gel.)

Data set [2] has as its target T2, dSBP2 (Drosophila melanogaster) (UniProt Q9VSH1).
T2 sequence: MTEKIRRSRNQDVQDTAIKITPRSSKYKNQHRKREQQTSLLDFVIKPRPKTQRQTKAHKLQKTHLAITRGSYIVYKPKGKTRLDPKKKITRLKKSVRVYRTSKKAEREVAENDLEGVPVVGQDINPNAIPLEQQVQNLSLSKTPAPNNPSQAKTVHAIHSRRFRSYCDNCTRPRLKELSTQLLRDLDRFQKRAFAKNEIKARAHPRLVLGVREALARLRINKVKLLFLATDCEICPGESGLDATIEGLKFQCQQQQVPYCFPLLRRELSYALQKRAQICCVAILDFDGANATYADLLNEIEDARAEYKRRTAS
Nature of the data set: EMSA.

For GPx1 SECIS (form 1), the pKd in data set [1] was 6.40. Substance dSelH SECIS (form 2) showed a negative logarithm of the Kd (pKd) in data set [2] of 6.77. The same measure, in the same setting: in the case of dSelK SECIS (form 2) it was 6.59.

In general, pKd refers to −log10 of the Kd, conventionally taken in molar units. Low readings indicate a large Kd, high ones a small Kd.
